Results from paper PMC10470591.

Columns and labels:
[1] = target: Flag-tagged SisArnE (vWA domain protein SisvWA2) expressed in S. islandicus (Saccharolobus islandicus REY15A); test: co-IP; in vivo pull-down: Flag-ArnB or Flag-ArnE precipitated with anti-Flag magnetic beads from sonicated S. islandicus cell extract in buffer A (50 mM Tris-HCl pH 7.5, 150 mM NaCl, 5% glycerol); SisArnA detected by Western blot with anti-SisArnA; cells untreated or treated with 3 µM NQO for 6 h
[2] = target: Flag-tagged SisArnB (vWA domain protein) expressed in S. islandicus (Saccharolobus islandicus REY15A); test: as above

- amount of SisArnA pulled down after NQO treatment, fold of the untreated sample [1]: 3 fold
- amount of SisArnA pulled down after NQO treatment, percent of the untreated sample [2]: 40%
- fold of the SisArnA-ArnE interaction, normal growth conditions [2]: 9 fold
Substance: SisArnA, FHA domain-containing protein from Saccharolobus islandicus REY15A (endogenous) (natural protein)
